Test [1] deals with T1, recombinant His-tagged human FRα (ACROBiosystems) (human, UniProt P15328 25-233).
T1 construct: also called hFRα; hFRα antigen; not shown: His tag
The test is described as follows: BLI (Octet RED96) as in Example 8: antibody captured, His-tagged hFRα as analyte, mean of n=2. The procedure: (§1) The assay buffer used was KB buffer (kinetics buffer, composed of PBS pH 7.4, 0.1% BSA, 0.02% Tween 20, 0.05% sodium azide) supplemented with 0.06% Tween 20 and in some instances also with 1% BSA. The experiment was conducted at 30° C. with a shake speed of 1000 rpm.
(§2) Data analysis was performed using Data Analysis Software 9.0 (ForteBio, Fremont CA). The reference-subtracted binding curves were globally fitted to the 1:1 interaction model to generate the binding kinetic parameters kₒₙ, koff, and the dissociation constant KD.

Test [2] deals with T1, recombinant His-tagged human FRα …. The test is described as follows: SPR (Biacore T200): hFRα amine-coupled to CM5 chip at medium antigen density, one-armed antibody injected, 1:1 Langmuir fit, mean of n=2. The procedure: (§3) CM5 Series S sensor chip, Biacore™ amine coupling kit (NHS, EDC and 1 M ethanolamine), and 10 mM sodium acetate buffers were purchased from GE Healthcare Life Science (Mississauga, ON, Canada). PBS running buffer with 0.05% Tween20 (PBST) was purchased from Teknova Inc. (Hollister, CA). Recombinant human FRα was purchased from ACRObiosystems (Newark, DE).
(§4) Screening of the variants for binding to hFRα antigen was conducted in two steps: capture of hFRα onto surface, followed by injection of three to five concentrations of variant. The hFRα surface was prepared on a CM5 Series S sensor chip by standard amine coupling methods as described by the manufacturer (GE Healthcare Life Science, Mississauga, ON, Canada). The immobilization of the hFRα was performed using Biacore™ T200 immobilization wizard with an amine coupling method aiming for resonance units (RUs) ranging from 5 to 200 RUs. Using multi-cycle kinetics, three to five concentrations of a two-fold dilution series of samples starting at 300 nM with a blank buffer control were injected at 50 uL/min for 180s with a 600s dissociation phase, resulting in a set of sensorgrams with a buffer blank reference. The hFRα surface was regenerated to prepare for the next injection cycle by one pulse of 10 mM glycine/HCl pH 1.5 for 30s at 30 uL/min. Blank-subtracted sensorgrams were analyzed using Biacore™ T200 Evaluation Software v3.0. The blank-subtracted sensorgrams were then fit to the 1:1 Langmuir binding model.

Test [3] has the same target. The test is described as follows: SPR (Biacore T200): hFRα amine-coupled to CM5 chip at medium-low antigen density, one-armed antibody injected, 1:1 Langmuir fit, mean of n=2. As to the method:
as §3, §4

For test [4] the target is unchanged. The test is described as follows: SPR (Biacore T200): hFRα amine-coupled to CM5 chip at high antigen density, one-armed antibody injected, 1:1 Langmuir fit, mean of n=2. As to the method: as §3, §4
For test [5] the target is unchanged. The test is described as follows: BLI (Octet RED96): antibody on anti-human IgG Fc capture biosensor, His-tagged hFRα as analyte, 1:1 global fit, mean of n=2. The procedure:
as §1, §2

In test [6] the target is T2, human FRα on cells (human, UniProt P15328 25-234). The test is described as follows: cell-based or functional assay.
Test [7] addresses T2, human FRα on cells. The test is described as follows: cell-based or functional assay. The source holds these as a separate data set.

Changes are numbered by the printed parent chain.

T2 sequence (P15328 25-234 limits assumed): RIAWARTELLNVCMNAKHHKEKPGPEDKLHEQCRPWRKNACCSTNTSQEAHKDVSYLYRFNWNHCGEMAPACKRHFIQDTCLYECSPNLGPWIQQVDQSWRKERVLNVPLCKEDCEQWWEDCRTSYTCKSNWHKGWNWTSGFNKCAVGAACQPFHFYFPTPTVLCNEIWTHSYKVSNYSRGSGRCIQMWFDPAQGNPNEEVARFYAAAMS
T1 sequence (P15328 25-233 limits assumed): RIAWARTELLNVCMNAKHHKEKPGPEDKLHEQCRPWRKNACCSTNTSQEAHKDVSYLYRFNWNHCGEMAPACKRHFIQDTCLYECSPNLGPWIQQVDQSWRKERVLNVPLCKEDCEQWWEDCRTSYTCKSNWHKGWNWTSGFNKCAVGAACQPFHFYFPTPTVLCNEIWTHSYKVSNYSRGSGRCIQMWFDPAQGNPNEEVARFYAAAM

B1: v36167 (antibody, human IgG1, kappa, V domains shown)
VH: EVQLLESGGGLVQPGGSLRLSCAVSGFSLSSYGVSWVRQAPGKGLEWIGAVNSGGSAYYADSFKGRSTISRDNSKNTVYLQMNSLRAEDTAVYYCARSGSGYPMDYLAIWGQGTLVTVSS
VL: DYQMTQSPSSVSASVGDRVTITCRASQSIWYWLAWYQQKPGKAPKLLIYEASTLASGVPSRFSGSGSGTDFTLTISSVQPEDAATYYCQQGYGRWHILNIFGGGTKVEVKR
In the case of B1, in test [1], the Kd was found to be 7.29 nM.

B2: v32597 (antibody, V domains shown)
VH: B1 VH with F63V
VL: DYQMTQSPSSVSASVGDRVTITCRASQSIGDWLAWYQQKPGKAPKLLIYEASTLASGVPSRFSGSGSGTDFTLTISSVQPEDAATYYCQQGYGRSNVDNIFGGGTKVEVK
notes: One-armed antibody (OAA) format, equivalent of v30384; also called OAA v30384 equivalent; one-armed antibody equivalent of v30384
As for B2, the Kd in test [2] amounted to 139 nM; in test [3], 146 nM; in test [4] it was 143 nM.

B3: v32598 (antibody, V domains shown)
VH: B1 VH with L4V, S62W, F63A
VL: B2 VL
notes: One-armed antibody (OAA) format, equivalent of v30399; also called OAA v30399 equivalent; one-armed antibody equivalent of v30399
As for B3, the Kd in test [2] came to 80.8 nM; in test [3], 91.5 nM; in test [4] it was 82 nM.

B4: v36168 (antibody, human IgG1, kappa, V domains shown)
VH: B1 VH with S31L, A50S, F63V
VL: B1 VL
For B4, the Kd in test [1] came out at 4.97 nM.

B5: v32596 (antibody, V domains shown)
VH: QSVKESEGGLFKPTDTLTLTCTVSGFSLSSYGVSWVRQAPGNGLEWIGAVNSGGSAYYANWAKSRSTITRNTNLFTVTLKMTSLAVADTATYFCARSGSGYPMDYLAIWGPGTLVTVSS
VL: AYDMTQTPASVEVAVGGTVTIKCQASQSIGDWLAWYQQKPGQPPRLLIYEASTLASGVPSRFSGSGSGTQFTLTISGVECADAATYYCQQGYGRSNVDNIFGGGTEVVVK
notes: One-armed antibody (OAA) format, said to be the equivalent of the FSA v23924; also called OAA v23924 equivalent; one-armed antibody equivalent of v23924
With B5, the Kd in test [2] is 30.3 nM; in test [3], 37.9 nM; in test [4] it was 30 nM.

B6: v30389 (antibody, human IgG1, kappa)
heavy 1: EVQVLESGGGLVQPGGSLRLSCAVSGFSLSSYGVSWVRQAPGKGLEWIGAVNSGGSAYYADSVKGRSTISRDNSKNTVYLQMNSLRAEDTAVYYCARSGSGYPMDYLAIWGQGTLVTVSSASTKGPSVFPLAPSSKSTSGGTAALGCLVKDYFPEPVTVSWNSGALTSGVHTFPAVLQSSGLYSLSSVVTVPSSSLGTQTYICNVNHKPSNTKVDKKVEPKSCDKTHTCPPCPAPELLGGPSVFLFPPKPKDTLMISRTPEVTCVVVDVSHEDPEVKFNWYVDGVEVHNAKTKPREEQYNSTYRVVSVLTVLHQDWLNGKEYKCKVSNKALPAPIEKTISKAKGQPREPQVYVYPPSRDELTKNQVSLTCLVKGFYPSDIAVEWESNGQPENNYKTTPPVLDSDGSFALVSKLTVDKSRWQQGNVFSCSVMHEALHNHYTQKSLSLSPG
heavy 2: not shown
light: DYQMTQSPSSVSASVGDRVTITCRASQSIGDWLAWYQQKPGKAPKLLIYEASTLASGVPSRFSGSGSGTDFTLTISSVQPEDAATYYCQQGYGRSNVDNIFGGGTKVEVKRTVAAPSVFIFPPSDEQLKSGTASVVCLLNNFYPREAKVQWKVDNALQSGNSQESVTEQDSKDSTYSLSSTLTLSKADYEKHKVYACEVTHQGLSSPVTKSFNRGEC
notes: Humanized IgG1/kappa, HetFc; also called 3bH4L
For the molecule B6, in test [5], the Kd worked out at 100 nM.

B7: v30384-MT-GGFG-Compound 141 (antibody, human IgG1, kappa)
heavy 1: B6 heavy 1 with V4L
heavy 2: not shown
light: B6 light
modifications: drug-linker MT-GGFG-Compound 141 on the antibody at DAR 8; conjugated residues not stated
Regarding B7, in the test with human FRα on cells [6], the “EC50 (nM), in vitro cytotoxicity, 2D monolayer, JEG-3 cells, 4 days” value was 1.68 nM; the “EC50 (nM), in vitro cytotoxicity, 2D monolayer, KB-HeLa cells, 4 days” value worked out at 0.81 nM; the “EC50 (nM), in vitro cytotoxicity, 2D monolayer, T-47D cells, 4 days” value was determined as 0.44 nM. Further, in the test with human FRα on cells [7], the “3D EC50 (nM), in vitro cytotoxicity, HEC-1-A spheroids, 6 days” value came out at 5 nM; the “3D EC50 (nM), in vitro cytotoxicity, IGROV-1 spheroids, 6 days” value was found to be 1 nM; the “3D EC50 (nM), in vitro cytotoxicity, OVCAR-3 spheroids, 6 days” value was 1.6 nM; the “3D EC50 (nM), in vitro cytotoxicity, T-47D spheroids, 6 days” value came to 0.4 nM.

B8: v30384-MC-GGFG-AM-Compound 141 (antibody, human IgG1, kappa)
heavy 1: B6 heavy 1 with V4L
heavy 2: not shown
light: B6 light
modifications: drug-linker MC-GGFG-AM-Compound 141 on the antibody at DAR 8; conjugated residues not stated
As for B8, in the test with human FRα on cells [6], the “EC50 (nM), in vitro cytotoxicity, 2D monolayer, JEG-3 cells, 4 days” value was determined as 3.45 nM; the “EC50 (nM), in vitro cytotoxicity, 2D monolayer, KB-HeLa cells, 4 days” value worked out at 0.77 nM; the “EC50 (nM), in vitro cytotoxicity, 2D monolayer, T-47D cells, 4 days” value worked out at 0.43 nM. Moreover, in the test with human FRα on cells [7], the “3D EC50 (nM), in vitro cytotoxicity, HEC-1-A spheroids, 6 days” value came out at 8.5 nM; the “3D EC50 (nM), in vitro cytotoxicity, IGROV-1 spheroids, 6 days” value stood at 0.6 nM; the “3D EC50 (nM), in vitro cytotoxicity, OVCAR-3 spheroids, 6 days” value was found to be 1.8 nM; the “3D EC50 (nM), in vitro cytotoxicity, T-47D spheroids, 6 days” value was determined as 0.4 nM.

B9: v31425 (antibody, human IgG1, kappa)
heavy: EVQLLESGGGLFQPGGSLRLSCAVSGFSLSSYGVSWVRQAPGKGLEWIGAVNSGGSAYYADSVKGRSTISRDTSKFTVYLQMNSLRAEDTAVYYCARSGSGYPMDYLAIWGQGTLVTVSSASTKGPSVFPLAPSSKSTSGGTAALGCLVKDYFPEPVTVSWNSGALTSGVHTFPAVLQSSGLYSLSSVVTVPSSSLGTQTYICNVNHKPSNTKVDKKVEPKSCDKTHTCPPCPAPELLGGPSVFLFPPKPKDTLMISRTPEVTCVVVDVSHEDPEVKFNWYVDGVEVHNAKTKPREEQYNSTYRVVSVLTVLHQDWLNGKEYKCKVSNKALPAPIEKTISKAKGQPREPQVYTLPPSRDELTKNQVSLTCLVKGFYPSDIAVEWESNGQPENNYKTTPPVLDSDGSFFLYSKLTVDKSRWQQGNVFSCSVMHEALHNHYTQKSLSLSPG
light: B6 light
notes: Humanized IgG1/kappa, HomoFc; also called 3fH4L
With B9, in test [5], the Kd stood at 160 nM.

B10: v31422 (antibody, human IgG1, kappa)
heavy: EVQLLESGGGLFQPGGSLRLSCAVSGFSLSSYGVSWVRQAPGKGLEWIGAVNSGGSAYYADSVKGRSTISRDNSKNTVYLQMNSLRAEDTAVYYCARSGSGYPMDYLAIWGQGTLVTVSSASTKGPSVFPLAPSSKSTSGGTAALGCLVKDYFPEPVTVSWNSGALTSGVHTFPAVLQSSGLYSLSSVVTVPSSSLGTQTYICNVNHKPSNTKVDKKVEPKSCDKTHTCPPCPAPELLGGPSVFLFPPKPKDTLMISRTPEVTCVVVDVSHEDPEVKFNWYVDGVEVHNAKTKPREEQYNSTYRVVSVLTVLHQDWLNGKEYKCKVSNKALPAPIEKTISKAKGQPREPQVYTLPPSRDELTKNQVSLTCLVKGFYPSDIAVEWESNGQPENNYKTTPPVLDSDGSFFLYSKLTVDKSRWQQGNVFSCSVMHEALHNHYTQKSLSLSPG
light: B6 light
notes: Humanized IgG1/kappa, HomoFc; also called 3cH4L
As for B10, the Kd in test [5] worked out at 180 nM.

B11: v35354 (antibody, human IgG1, kappa, V domains shown)
VH: B1 VH with S31L
VL: B1 VL
Take B11: in test [1], the Kd stood at 3.13 nM.

B12: v35358 (antibody, human IgG1, kappa, V domains shown)
VH: B1 VH with L107H, A108P
VL: B1 VL
Turning to B12, the Kd in test [1] amounted to 7.22 nM.

B13: v35342 (antibody, human IgG1, kappa, V domains shown)
VH: B1 VH with S31L, A50S, V51L, F63V
VL: B1 VL
As for B13, in test [1], the dissociation constant Kd turned out to be 4.1 nM.

B14: v31423 (antibody, human IgG1, kappa, V domains shown)
VH: B1 VH with F63V, N73T
VL: B1 VL with W30G, Y31D, W95S, H96N, I97V, L98D
notes: Humanized IgG1/kappa, HomoFc; also called 3dH4L
With B14, the Kd in test [5] came to 110 nM.

B15: v35347 (antibody, human IgG1, kappa, V domains shown)
VH: B1 VH with S31L, L107H, A108P
VL: B1 VL with W30G, Y31D, W95S, H96N, I97V, L98D
As for B15, the Kd in test [1] was 8.65 nM.

B16: v31424 (antibody, human IgG1, kappa)
heavy: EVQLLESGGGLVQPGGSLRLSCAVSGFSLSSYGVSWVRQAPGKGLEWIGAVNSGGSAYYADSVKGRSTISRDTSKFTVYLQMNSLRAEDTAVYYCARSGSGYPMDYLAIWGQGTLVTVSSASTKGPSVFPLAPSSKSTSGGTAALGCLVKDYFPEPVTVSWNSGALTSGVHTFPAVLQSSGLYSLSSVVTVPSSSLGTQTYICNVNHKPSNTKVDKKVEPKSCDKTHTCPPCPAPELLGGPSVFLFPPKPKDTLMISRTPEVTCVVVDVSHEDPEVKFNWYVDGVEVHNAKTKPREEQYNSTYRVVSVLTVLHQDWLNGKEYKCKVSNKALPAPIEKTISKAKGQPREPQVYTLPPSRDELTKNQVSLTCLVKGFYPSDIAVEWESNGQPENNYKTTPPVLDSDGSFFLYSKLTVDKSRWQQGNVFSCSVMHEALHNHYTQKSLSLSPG
light: B6 light
notes: Humanized IgG1/kappa, HomoFc; also called 3eH4L
As to B16, in test [5], the Kd was found to be 110 nM.

B17: v35350 (antibody, human IgG1, kappa, V domains shown)
VH: B1 VH with S31L, L107H, A108P
VL: B1 VL
Consider B17, for which, in test [1], the equilibrium dissociation constant (Kd) came out at 3.55 nM.

(Values after US20240424125A1 (Zymeworks, published 2024).)
